From patent US20250154277A1 (CONCEPT TO MEDICINE BIOTECH, published 2025)
Where a chain is given by its changes, count along the chain named. Numbers in names are those of the source.

B1: Hu159D5-2 (antibody, V domains shown)
VH: EVQLVESGGGVVQPGRSLRLSCAASGFTFSNFGMHWVRQAPGKGLEWVAYISSGSSTFYYADSVKGRFTISRDNSKNTLYLQMNSLRAEDTAVYYCARSPAYYRYGLDYWGQGTTVTVSS
VL: DIVMTQTPLSLSVTPGQPASISCRASQSVSSSTFSYMHWYQQKPGQPPQLLIKSSSNLESGVPDRFSGSGSGTDFTLKISRVEAEDVGVYYCQHSWEIPYTFGGGTKVEIK
notes: humanized
B2: Hu159D5-5 (antibody, V domains shown)
VH: B1 VH
VL: DIVMTQSPDSLAVSLGERATINCRASQSVSSSTFSYMHWYQQKPGQPPKLLIKSSSNLESGVPDRFSGSGSGTDFTLTISSLQAEDVAVYYCQHSWEIPYTFGGGTKVEIK
notes: humanized
B3: Hu159D5-9 (antibody, V domains shown)
VH: B1 VH with Y95F
VL: B1 VL with M4L
notes: humanized
B4: Hu159D5-7 (antibody, V domains shown)
VH: B1 VH with Y95F
VL: B1 VL with K53Y
notes: humanized
B5: Hu159D5-1 (antibody, V domains shown)
VH: B1 VH
VL: B1 VL with K53Y
notes: humanized
B6: Hu159D5-8 (antibody, V domains shown)
VH: B1 VH with Y95F
VL: B1 VL
notes: humanized
B7: Hu159D5-12 (antibody, V domains shown)
VH: B1 VH with Y95F
VL: B2 VL with M4L
notes: humanized
B8: Hu159D5-11 (antibody, V domains shown)
VH: B1 VH with Y95F
VL: B2 VL
notes: humanized
B9: Hu159D5-6 (antibody, V domains shown)
VH: B1 VH
VL: B2 VL with M4L
notes: humanized
B10: Hu159D5-3 (antibody, V domains shown)
VH: B1 VH
VL: B1 VL with M4L
notes: humanized
B11: Hu159D5-10 (antibody, V domains shown)
VH: B1 VH with Y95F
VL: B2 VL with K53Y
notes: humanized
B12: Hu159D5-4 (antibody, V domains shown)
VH: B1 VH
VL: B2 VL with K53Y
notes: humanized
B13: 95F10 chimeric antibody (antibody, V domains shown)
VH: QVQLQQSGPEVVNPGASVKISCKASGYTFTDYYMNWVKQSRGKSLEWIGDINPNNGGTNYNQKFKDKATLTVDKSSNTAYMELRSLTSENSAVYYCAKEGPPGAMDYWGQGTSVTVSS
VL: NIVMTQTPKFLLVSAGDRVTITCKASQSVSNHVAWYQQKPGQSPKLLIYYVSNRYIGVPDRFTGSGYGTDFTFTISTVQAEDLAVYFCQQVYSSPFTFGGGTRLEMK
notes: chimeric mAb
B14: 85B10 chimeric antibody (antibody, V domains shown)
VH: B13 VH with V11L, N13K, D31A, M34V, R41H, D66G, K74M, N77S, N90D
VL: B13 VL with N1S, M4L, T20P, H32N, V51A, R54P, I56T, S76T, R103K
notes: chimeric mAb
B15: 286B4 chimeric antibody (antibody, V domains shown)
VH: DVQLHESGPGLVKPSQSLSLTCSVTGYSITNNYYWNWIRQFPGNNLEWMGYITYDGSNNYNPSLKNRISVTRDTSKNQFFLKLSSVTTEDTATYYCTRGGGQLRFDYWGQGTTLTVSS
VL: SIVMTQTPKFLIVSAGDRVTITCKASQSVSNEVTWYQQKPGQSPKMLIYYASNRYTGVPDRFTGSGYGTDFTFTINTVQAEDLAIYFCQQDYSSPWTFGGGTKLEIK
notes: chimeric mAb; also called 284B4-C
B16: 159D5-P1 (antibody, V domains shown)
VH: DVQLVESGGGLVQPGGSRKLSCTASGFTFSNFGMHWVRQAPETGLEWVAYISSGSSTFYYADAVKGRFTISRDNPKNTLFLQMTSLRSEDTAMYFCARSPAYYRYGLDYWGQGTTLTVSS
VL: DIVLTQSPASLAVSLGQRATISCRASQSVSSSTFSYMHWYQQKPGQPPKLLIKSSSNLESGVPARFSGSGSGTDFTLNIHPVEEEDTATYYCQHSWEIPYTFGGGTKLEIK
notes: chimeric 159D5 with S62A (DS to DA) in VH CDR2; also called PTM removal antibody of 159D5-P1; 159D5-VH.S62A with 159D5 VL

Key:
human 5T4-His protein [1] = biological target: T1, human 5T4-His protein (human, UniProt Q13641 32-355); assay: ELISA, coated 5T4-His
T1 construct: also called recombinant 5T4 protein (human 5T4-his tag); human 5T4 protein; not shown: His tag
T1 sequence (looked up): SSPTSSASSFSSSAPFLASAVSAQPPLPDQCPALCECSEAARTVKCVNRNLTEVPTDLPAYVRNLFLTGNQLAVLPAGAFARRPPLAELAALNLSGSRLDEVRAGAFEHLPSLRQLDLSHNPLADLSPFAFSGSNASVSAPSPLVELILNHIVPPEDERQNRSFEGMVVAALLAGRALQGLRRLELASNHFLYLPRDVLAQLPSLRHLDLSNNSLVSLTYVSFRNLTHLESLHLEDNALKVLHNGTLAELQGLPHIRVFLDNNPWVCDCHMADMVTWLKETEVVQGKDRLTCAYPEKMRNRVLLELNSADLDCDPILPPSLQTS
Experimental: To evaluate the binding activity of 159D5 humanized antibodies to human 5T4, the 159D5 chimeric antibody along with 159D5 humanized mAbs were subjected to ELISA test.
Briefly, microtiter plates were coated with human 5T4-His protein at 1 μg/ml in PBS, 100 μl/well at 4° C. overnight, then blocked with 150 μl/well of 10% BSA. Serial dilutions of antibodies were added to each well and incubated for 1 hour at 37° C. The plates were washed with PBS/Tween and then incubated with Goat Anti-Human IgG-HRP for 30 mins at 37° C. After washing, the plates were developed with TMB substrate and analyzed by spectrophotometer at OD 450 nm. As shown in FIG. 14 and Table 12, most of the humanized antibodies bound to human 5T4 with high activity.

human 5T4-His protein [2] = biological target: T1, human 5T4-His protein; assay: SPR Biacore, Protein A capture, 50 nM 5T4-His
Experimental: (§1) The binding of the 159D5 humanized antibodies to recombinant 5T4 protein (human 5T4-his tag) was tested with Biacore using a capture method. The mAbs were captured using Protein A chip. 50 nM of human 5T4-his tag protein was injected over captured antibody for 3 mins at a flow rate of 30 μl/min. The antigen was allowed to dissociate for 600 s. All the experiments were carried out on a Biacore T200. Data analysis was carried out using the Biacore T200 evaluation software.

human 5T4-His protein [3] = biological target: T1, human 5T4-His protein; assay: ELISA, coated antigen
Experimental: (§2) ELISA testing was carried out to evaluate the binding of chimeric antibodies to human and cynomolgus, respectively. The antibody portion of naptumomab (NeoTX) that targets 5T4 (abbreviated as naptumomab in the present disclosure), was generated and used as a benchmark.
(§3) Briefly, microtiter plates were coated with human and cynomolgus 5T4 proteins at […] in PBS, 100 μl/well at 4° C. overnight, then blocked with 150 μl/well of 1% BSA. Serial dilutions of chimeric antibodies were added to each well and incubated for 1 hour at RT. The plates were washed with PBS/Tween and then incubate with mouse-anti-human IgG Fc antibody conjugated with Horse Radish Peroxidase (HRP) for 30 mins at RT. After washing, the plates were developed with TMB substrate and analyzed by spectrophotometer at OD 450 nm. All the 5T4 chimeric mAbs bound to human and cynomolgus 5T4 (FIG. 1-2 and Table 3).

cynomolgus 5T4 protein = biological target: T2, cynomolgus 5T4 protein (cynomolgus monkey, UniProt Q4R8Y9 35-355, limits assumed); assay: ELISA, coated antigen
T2 construct: Coated protein in ELISA; the screening step names a cyno 5T4-His protein; also called cyno 5T4; recombinant cyno 5T4-His protein
T2 sequence (looked up): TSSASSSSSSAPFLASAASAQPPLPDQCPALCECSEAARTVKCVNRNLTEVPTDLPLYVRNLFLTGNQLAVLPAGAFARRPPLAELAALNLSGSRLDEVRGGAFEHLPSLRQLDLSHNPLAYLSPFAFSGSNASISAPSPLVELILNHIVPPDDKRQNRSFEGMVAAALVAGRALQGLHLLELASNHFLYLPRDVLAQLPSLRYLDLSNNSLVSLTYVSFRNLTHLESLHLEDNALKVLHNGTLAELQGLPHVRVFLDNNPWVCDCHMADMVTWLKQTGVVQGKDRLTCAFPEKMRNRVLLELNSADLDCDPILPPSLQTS
Experimental: as §2, §3

human 5T4-His protein [4] = biological target: T1, human 5T4-His protein; assay: SPR Biacore, Protein A capture
Experimental: as §1, with “the chimeric mAbs from these clones against” for “the 159D5 humanized antibodies to”, “chip. A serial dilution” for “chip. 50 nM”, “for 2-3” for “for 3”, “for 360-1000” for “for 600”, “using” for “using the”

human 5T4-His protein [5] = biological target: T1, human 5T4-His protein; assay: SPR Biacore, Protein A capture; remark: listed apart in the source
Experimental: as §1, with “286B4” for “159D5”, “A serial dilution” for “50 nM”, “280-800” for “600”

human 5T4-His protein [6] = biological target: T1, human 5T4-His protein; assay: ELISA, coated 5T4-His; remark: listed apart in the source
How it was run: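 Plates coated overnight at 4° C with 1 μg/ml 5T4-His, blocked with 1% BSA. Antibodies in 4-fold dilutions from 20 nM, 1 h at 37° C; bound antibody detected with anti-human IgG-HRP (30 min, 37° C), TMB development, OD 450 nm.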

Binder | EC50 (human 5T4-His protein [1]) | Kd (human 5T4-His protein [2]) | koff (human 5T4-His protein [2]) | kon (human 5T4-His protein [2]) | further results
B1 | 0.12 nM | 0.789 nM | 0.000227 s⁻¹ | 287000 M⁻¹ s⁻¹ | 
B2 | 0.099 nM | 10.1 nM | 0.000561 s⁻¹ | 55600 M⁻¹ s⁻¹ | 
B3 | 0.14 nM | 0.747 nM | 0.000221 s⁻¹ | 295000 M⁻¹ s⁻¹ | 
B4 | 0.097 nM | 1.14 nM | 0.000253 s⁻¹ | 221000 M⁻¹ s⁻¹ | 
B5 | 0.088 nM | 3.99 nM | 0.000294 s⁻¹ | 73700 M⁻¹ s⁻¹ | 
B6 | 0.15 nM | 4.19 nM | 0.000352 s⁻¹ | 84000 M⁻¹ s⁻¹ | 
B7 | 0.12 nM | 1.21 nM | 0.000267 s⁻¹ | 222000 M⁻¹ s⁻¹ | 
B8 | 0.12 nM | 1.06 nM | 0.000273 s⁻¹ | 257000 M⁻¹ s⁻¹ | 
B9 | 0.1 nM | 0.71 nM | 0.000179 s⁻¹ | 252000 M⁻¹ s⁻¹ | 
B10 | 0.12 nM | 1.02 nM | 0.00024 s⁻¹ | 235000 M⁻¹ s⁻¹ | 
B11 | 0.094 nM | 9.31 nM | 0.000488 s⁻¹ | 52400 M⁻¹ s⁻¹ | 
B12 | 0.094 nM | 7.07 nM | 0.000426 s⁻¹ | 60200 M⁻¹ s⁻¹ | 
B13 |  |  |  |  | EC50 (human 5T4-His protein [3]): 0.24 nM; EC50 (cynomolgus 5T4 protein): 0.17 nM; Kd (human 5T4-His protein [4]): 0.337 nM; koff (human 5T4-His protein [4]): 0.00012 s⁻¹; kon (human 5T4-His protein [4]): 355000 M⁻¹ s⁻¹
B14 |  |  |  |  | EC50 (human 5T4-His protein [3]): 0.34 nM; EC50 (cynomolgus 5T4 protein): 0.17 nM; Kd (human 5T4-His protein [4]): 0.792 nM; koff (human 5T4-His protein [4]): 0.000125 s⁻¹; kon (human 5T4-His protein [4]): 158000 M⁻¹ s⁻¹
B15 |  |  |  |  | EC50 (human 5T4-His protein [3]): 0.35 nM; EC50 (cynomolgus 5T4 protein): 0.22 nM; Kd (human 5T4-His protein [5]): 1.25 nM; koff (human 5T4-His protein [5]): 0.000113 s⁻¹; kon (human 5T4-His protein [5]): 90900 M⁻¹ s⁻¹; EC50 (human 5T4-His protein [6]): 0.32 nM; Kd (human 5T4-His protein [4]): 0.96 nM; koff (human 5T4-His protein [4]): 6.99e-05 s⁻¹; kon (human 5T4-His protein [4]): 72800 M⁻¹ s⁻¹
B16 | 0.13 nM | 0.489 nM | 0.000163 s⁻¹ | 334000 M⁻¹ s⁻¹ | 
